Experimental findings from patent publication US8461305B2, “L-fucose α1→6 specific lectin” (J-Oil Mills, Inc., priority 2008, dated 2013) are described below.

In test [1] the target is α-fetoprotein (derived from human umbilical cord blood serum, mainly L1-type sugar chain) (human) (UniProt P02771). In words: ELISA, α-fetoprotein coated at 0.01 µg/ml, biotin-labeled lectin. A general note: An ELISA detects its analyte on a solid surface through an enzyme-linked reagent.
In test [2] the target is α-fetoprotein-L3 (prepared from the culture supernatant of human liver cancer cells) (human) (UniProt P02771). Kind of test: ELISA, α-fetoprotein-L3 coated at 0.01 µg/ml, biotin-labeled lectin.
Test [3] deals with Aleuria aurantia lectin (AAL) of Comparison Example 1 (Aleuria aurantia) (UniProt P18891). Kind of test: hemagglutination inhibition; glycoprotein titrated against lectin at titer 4.
Test [4] concerns the target Aspergillus oryzae lectin (AOL) of Comparison Example 2 (Aspergillus oryzae). Described as above.
Test [5] concerns the target Lens culinaris agglutinin (LCA) of Comparison Example 3 (Lens culinaris) (UniProt P02870). Described as above.
Test [6] deals with Pholiota terrestris lectin (PTL) of Example 1 (Pholiota terrestris). Described as above.
The target in test [7] is Pisum sativum agglutinin (PSA) of Comparison Example 4 (Pisum sativum) (UniProt P02867). The description is as above.
The target of test [8] is Stropharia rugosoannulata lectin (SRL) of Example 2 (Stropharia rugosoannulata). Described as above.
For the next test, the target named is Transferrin (human) (human, UniProt P02787 20-698, N-linked glycans without L-fucose α1→6). In words: Western blotting, glycoprotein on PVDF stained with biotin-labeled lectin. As to the method:
(§1) The film was immersed in 10 mM Tris buffer solution including 0.8% NaCl added with 1% BSA (pH 7.4, 1% BSA+TBS) and was shaken at a room temperature for one hour. Then, the film was cleaned three times by 10 mM Tris buffer solution (pH 7.4, TBS) including 0.8% NaCl. Then, the film was immersed in biotin-labeled lectin solution (2 µg/ml) and was shaken at a room temperature for one hour. Then, the film was cleaned three times by TBS. Then, the film was immersed in the HRP label streptavidin solution at 1 µg/ml (Vector Laboratories) and was shaken at a room temperature for 30 minutes. After the film was cleaned three times by TBS, a POD immunostain set (Wako Pure Chemical Industries, Ltd.) was used to perform a staining test. The staining test is to detect glycoprotein by the western blotting using biotin-labeled lectin. FIG. 13 to FIG. 17 are photographs showing the following glycoproteins stained by PTL (FIG. 13), SRL (FIG. 14), AAL (FIG. 15), AOL (FIG. 16), or LCA (FIG. 17).

The target of another test is Lactoferrin (bovine) (bovine, UniProt P24627 20-708, L-fucose α1→6 N-linked glycans). In words: Western blotting, glycoprotein on PVDF stained with biotin-labeled lectin; ◯ = Detected. On the procedure:
as §1
(In general: In western blotting, separated proteins are transferred to a membrane and probed.)

Another test deals with T1, Invertase (yeast) (yeast, UniProt P00724 20-532, high mannose-type sugar chains).
T1 sequence (looked up): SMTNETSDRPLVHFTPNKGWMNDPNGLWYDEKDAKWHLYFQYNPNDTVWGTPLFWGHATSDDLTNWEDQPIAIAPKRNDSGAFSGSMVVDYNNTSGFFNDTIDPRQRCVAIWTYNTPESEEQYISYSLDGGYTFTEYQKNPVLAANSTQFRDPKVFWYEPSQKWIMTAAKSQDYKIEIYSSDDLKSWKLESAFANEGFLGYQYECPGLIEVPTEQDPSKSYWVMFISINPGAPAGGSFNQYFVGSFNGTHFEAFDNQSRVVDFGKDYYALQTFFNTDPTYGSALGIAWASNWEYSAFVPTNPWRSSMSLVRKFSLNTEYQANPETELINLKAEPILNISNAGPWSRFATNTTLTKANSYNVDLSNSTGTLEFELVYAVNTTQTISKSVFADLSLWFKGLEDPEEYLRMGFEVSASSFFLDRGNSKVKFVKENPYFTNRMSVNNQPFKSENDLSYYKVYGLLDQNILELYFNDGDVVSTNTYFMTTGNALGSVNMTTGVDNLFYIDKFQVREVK
In words: ELISA, glycoprotein coated, biotin-labeled lectin; relative value with thyroglobulin = 100%. As to the method: (§2) The glycoprotein and albumin as protein not including a sugar chain as a control were dissolved in 0.1 M carbonic acid buffer solution (pH 9.5) at 1 mg/ml. Then, the resultant solution was added to a microtiter plate (Nunc 439454) and was incubated at 4 degrees C. overnight. Then, the resultant solution was cleaned by 0.05% Tween/PBS three times. Thereafter, 1% BSA/PBS was added to wells and the solution was incubated at 37 degrees C. for one hour. Then, after the solution was cleaned by 0.05% Tween/PBS three times, biotin labeled-lectin appropriately diluted by 1% BSA/0.05% Tween/PBS was added to the wells and the solution was incubated at 37 degrees C. for one hour. After the solution was cleaned by 0.05% Tween/PBS three times, HRP labeled streptavidin solution diluted by 1% BSA/0.05% Tween/PBS was added to wells and the solution was incubated at 37 degrees C. for 30 minutes. After the solution was cleaned by 0.05% Tween/PBS three times, TMB Peroxidase substrate system (KPL) was added and the resultant solution was incubated at a room temperature for 10 minutes while light was being blocked.
(§3) The reaction was stopped by 1 M phosphoric acid. Then, a microplate reader (MPR-A4i, TOSOH CORPORATION) was used to measure the absorbance at 450 nm. Based on this value, reaction value ([absorbance at 450 nm of a well for which glycoprotein was solid-phased to the plate and
(§4) […] reacted]−[absorbance at 450 nm of a well for which glycoprotein was not solid-phased to the plate and reacted] was calculated. Next, for each lectin, the interaction strength (relative value) to each glycoprotein was calculated based on an assumption that the glycoprotein (thyroglobulin) value was 100%. The calculation result is shown in Table 9 and FIG. 19 to FIG. 23.

In the next test the target is T2, Bovine serum albumin (bovine, UniProt P02769 25-607).
T2 construct: Control protein without a sugar chain; also called Bovine blood serum albumin; Blood serum albumin (bovine)
Described as above. On the procedure: as §2, §3, §4

The next test has as its target Thyroglobulin (pig) (pig, UniProt F1RRV3 20-2692, L-fucose α1→6 N-linked glycans). Kind of test: ELISA, glycoprotein coated, biotin-labeled lectin; thyroglobulin set to 100%; ⊚ = relative values of 120 to 80. As to the method: The glycoprotein and albumin as protein not including a sugar chain as a control were dissolved in 0.1 M carbonic acid buffer solution (pH 9.5) at 1 mg/ml. Then, the resultant solution was added to a microtiter plate (Nunc 439454) and was incubated at 4 degrees C. overnight. Then, the resultant solution was cleaned by 0.05% Tween/PBS three times. Thereafter, 1% BSA/PBS was added to wells and the solution was incubated at 37 degrees C. for one hour. Then, after the solution was cleaned by 0.05% Tween/PBS three times, biotin labeled-lectin appropriately diluted by 1% BSA/0.05% Tween/PBS was added to the wells and the solution was incubated at 37 degrees C. for one hour. […]
as §3
In contrast with this, in the case of PTL of Example 1 and SRL of Example 2, only glycoprotein having sL-fucose α1→6 sugar chain is detected and a non-L-fucose α1→6 reacted]−[absorbance at 450 nm of a well for which glycoprotein was not solid-phased to the plate and reacted] was calculated. […]

Chain of α-fetoprotein (derived from human umbilical cord blood serum, mainly L1-type sugar chain) (human) (P02771 19-609 limits assumed): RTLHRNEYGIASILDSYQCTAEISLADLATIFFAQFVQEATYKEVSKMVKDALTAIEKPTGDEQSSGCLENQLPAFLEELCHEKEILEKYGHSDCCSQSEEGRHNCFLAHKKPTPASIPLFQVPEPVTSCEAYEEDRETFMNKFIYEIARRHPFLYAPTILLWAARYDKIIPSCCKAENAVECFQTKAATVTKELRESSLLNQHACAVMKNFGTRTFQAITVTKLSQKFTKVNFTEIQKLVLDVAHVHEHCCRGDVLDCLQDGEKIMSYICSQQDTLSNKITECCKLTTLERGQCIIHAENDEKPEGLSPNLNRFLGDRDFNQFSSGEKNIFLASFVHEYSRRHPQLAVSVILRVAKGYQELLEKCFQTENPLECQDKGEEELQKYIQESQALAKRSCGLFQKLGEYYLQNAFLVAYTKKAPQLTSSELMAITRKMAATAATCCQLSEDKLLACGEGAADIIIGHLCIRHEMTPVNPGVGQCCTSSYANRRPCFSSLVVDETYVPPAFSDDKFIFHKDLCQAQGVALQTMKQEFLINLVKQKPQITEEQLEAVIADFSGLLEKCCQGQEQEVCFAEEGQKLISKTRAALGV
Chain of α-fetoprotein-L3 (prepared from the culture supernatant of human liver cancer cells) (human) (P02771 19-609 limits assumed): as above
Chain of Aspergillus oryzae lectin (AOL) of Comparison Example 2 (Aspergillus oryzae) (Q8TGE0 whole entry): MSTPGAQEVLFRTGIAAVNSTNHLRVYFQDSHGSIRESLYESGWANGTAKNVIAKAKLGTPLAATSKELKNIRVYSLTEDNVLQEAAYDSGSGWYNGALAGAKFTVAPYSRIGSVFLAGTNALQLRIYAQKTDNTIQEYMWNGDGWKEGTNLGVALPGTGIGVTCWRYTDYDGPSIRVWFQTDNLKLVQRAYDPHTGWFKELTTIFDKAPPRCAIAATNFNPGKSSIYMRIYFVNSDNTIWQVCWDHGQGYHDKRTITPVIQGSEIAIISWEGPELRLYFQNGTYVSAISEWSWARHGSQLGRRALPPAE
T2 sequence (P02769 25-607 limits assumed): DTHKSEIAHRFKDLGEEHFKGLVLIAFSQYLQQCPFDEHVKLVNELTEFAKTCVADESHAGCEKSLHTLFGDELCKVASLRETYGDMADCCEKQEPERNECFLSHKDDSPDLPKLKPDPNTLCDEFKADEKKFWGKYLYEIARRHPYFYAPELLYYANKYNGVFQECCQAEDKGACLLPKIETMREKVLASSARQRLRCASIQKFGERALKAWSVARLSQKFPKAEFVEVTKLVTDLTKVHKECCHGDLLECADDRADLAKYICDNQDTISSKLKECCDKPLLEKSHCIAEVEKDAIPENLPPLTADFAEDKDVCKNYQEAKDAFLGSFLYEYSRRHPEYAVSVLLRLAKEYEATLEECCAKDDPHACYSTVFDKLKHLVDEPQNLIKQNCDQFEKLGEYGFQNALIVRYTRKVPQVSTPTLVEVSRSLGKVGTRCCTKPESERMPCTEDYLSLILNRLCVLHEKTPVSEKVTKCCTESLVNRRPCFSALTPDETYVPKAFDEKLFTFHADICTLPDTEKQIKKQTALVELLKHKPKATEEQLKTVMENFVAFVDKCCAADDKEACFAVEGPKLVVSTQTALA
Chain of Transferrin (human) (P02787 20-698 limits assumed): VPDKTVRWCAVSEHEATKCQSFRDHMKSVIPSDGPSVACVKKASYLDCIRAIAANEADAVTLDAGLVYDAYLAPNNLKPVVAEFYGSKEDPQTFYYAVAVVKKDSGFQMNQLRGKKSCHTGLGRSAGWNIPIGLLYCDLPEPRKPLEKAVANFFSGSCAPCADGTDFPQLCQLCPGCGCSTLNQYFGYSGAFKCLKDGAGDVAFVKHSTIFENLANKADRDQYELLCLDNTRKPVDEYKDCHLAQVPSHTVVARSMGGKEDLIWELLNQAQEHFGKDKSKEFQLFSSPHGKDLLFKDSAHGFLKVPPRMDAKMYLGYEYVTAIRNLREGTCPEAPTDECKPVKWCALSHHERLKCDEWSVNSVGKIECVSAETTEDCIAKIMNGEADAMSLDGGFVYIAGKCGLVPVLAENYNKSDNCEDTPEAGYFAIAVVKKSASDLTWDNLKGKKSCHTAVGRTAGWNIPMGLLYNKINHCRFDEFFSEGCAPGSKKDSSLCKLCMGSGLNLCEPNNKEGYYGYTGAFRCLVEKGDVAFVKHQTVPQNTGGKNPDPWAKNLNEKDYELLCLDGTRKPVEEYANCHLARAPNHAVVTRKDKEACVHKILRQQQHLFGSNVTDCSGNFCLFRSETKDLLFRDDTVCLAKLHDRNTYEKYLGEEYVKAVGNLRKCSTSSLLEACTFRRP
Chain of Thyroglobulin (pig) (F1RRV3 20-2692 limits assumed): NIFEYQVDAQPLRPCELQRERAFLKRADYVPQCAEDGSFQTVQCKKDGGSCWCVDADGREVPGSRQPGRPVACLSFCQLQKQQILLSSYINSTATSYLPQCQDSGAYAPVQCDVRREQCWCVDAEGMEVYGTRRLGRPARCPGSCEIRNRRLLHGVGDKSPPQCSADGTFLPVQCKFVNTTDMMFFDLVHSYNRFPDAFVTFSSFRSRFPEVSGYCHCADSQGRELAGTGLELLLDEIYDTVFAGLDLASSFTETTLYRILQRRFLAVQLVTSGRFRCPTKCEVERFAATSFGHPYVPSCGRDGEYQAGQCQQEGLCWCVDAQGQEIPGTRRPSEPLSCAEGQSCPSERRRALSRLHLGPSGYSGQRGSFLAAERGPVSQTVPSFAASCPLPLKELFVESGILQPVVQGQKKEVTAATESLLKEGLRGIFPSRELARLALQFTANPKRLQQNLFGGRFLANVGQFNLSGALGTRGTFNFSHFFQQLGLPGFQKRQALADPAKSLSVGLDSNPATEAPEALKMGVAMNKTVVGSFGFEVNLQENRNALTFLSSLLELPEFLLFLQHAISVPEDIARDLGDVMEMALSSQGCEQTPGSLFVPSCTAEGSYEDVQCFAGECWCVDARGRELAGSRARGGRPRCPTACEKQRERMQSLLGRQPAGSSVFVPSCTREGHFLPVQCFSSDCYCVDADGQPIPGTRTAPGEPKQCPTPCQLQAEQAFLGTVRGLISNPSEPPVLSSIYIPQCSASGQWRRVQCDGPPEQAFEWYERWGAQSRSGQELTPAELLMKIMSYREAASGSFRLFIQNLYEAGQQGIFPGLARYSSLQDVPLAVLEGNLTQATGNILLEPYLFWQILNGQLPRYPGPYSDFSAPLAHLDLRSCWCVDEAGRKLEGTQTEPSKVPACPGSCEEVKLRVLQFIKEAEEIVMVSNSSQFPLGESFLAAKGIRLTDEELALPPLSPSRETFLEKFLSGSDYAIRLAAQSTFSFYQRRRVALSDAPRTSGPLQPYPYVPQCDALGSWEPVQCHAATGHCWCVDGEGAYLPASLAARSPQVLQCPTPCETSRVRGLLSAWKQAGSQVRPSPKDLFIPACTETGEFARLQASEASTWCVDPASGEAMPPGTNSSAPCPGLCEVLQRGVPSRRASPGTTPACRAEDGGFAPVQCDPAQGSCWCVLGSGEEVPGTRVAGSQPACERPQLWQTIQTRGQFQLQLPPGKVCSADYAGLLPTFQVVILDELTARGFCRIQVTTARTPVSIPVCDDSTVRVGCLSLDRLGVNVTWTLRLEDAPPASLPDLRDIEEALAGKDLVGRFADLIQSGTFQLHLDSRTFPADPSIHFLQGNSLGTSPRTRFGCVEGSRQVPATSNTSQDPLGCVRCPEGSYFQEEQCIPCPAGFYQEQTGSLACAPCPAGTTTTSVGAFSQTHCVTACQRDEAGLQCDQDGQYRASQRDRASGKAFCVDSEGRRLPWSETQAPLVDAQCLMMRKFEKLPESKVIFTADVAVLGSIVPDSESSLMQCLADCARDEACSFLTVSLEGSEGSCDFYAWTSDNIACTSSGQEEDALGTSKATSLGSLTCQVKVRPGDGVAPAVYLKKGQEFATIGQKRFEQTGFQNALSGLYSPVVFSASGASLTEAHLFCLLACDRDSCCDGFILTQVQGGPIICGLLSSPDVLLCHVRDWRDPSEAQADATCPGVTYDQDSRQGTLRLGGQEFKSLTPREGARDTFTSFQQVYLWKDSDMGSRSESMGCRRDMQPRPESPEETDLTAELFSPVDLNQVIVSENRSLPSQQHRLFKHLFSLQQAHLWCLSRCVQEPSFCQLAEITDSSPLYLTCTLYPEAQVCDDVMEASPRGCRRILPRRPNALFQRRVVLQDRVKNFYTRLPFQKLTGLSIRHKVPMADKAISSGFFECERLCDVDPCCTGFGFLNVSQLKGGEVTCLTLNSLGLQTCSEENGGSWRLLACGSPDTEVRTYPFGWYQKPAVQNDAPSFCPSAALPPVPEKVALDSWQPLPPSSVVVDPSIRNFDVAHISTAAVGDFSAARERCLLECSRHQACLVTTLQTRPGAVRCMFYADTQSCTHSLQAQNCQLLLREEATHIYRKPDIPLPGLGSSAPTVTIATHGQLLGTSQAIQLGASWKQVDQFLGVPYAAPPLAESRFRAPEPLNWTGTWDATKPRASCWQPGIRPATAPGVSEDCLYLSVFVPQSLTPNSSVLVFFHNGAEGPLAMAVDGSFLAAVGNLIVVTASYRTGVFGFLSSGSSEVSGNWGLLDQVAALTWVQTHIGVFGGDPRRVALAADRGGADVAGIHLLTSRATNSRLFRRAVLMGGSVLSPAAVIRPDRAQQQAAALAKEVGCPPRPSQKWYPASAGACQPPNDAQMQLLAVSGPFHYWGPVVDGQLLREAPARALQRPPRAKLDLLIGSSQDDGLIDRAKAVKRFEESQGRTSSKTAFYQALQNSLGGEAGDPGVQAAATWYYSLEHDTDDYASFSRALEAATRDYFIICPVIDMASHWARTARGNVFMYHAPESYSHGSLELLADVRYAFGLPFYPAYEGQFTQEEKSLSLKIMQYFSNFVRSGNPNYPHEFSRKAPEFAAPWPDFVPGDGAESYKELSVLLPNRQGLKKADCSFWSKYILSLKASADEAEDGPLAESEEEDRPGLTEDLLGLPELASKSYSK

For “Aspergillus oryzae lectin (AOL) of Comparison Example 2”, the reaction value (absorbance at 450 nm, blank subtracted) (absorbance at 450 nm) in [1] is 0.011; in test [2], 0.898.

With “Lens culinaris agglutinin (LCA) of Comparison Example 3 (from UniProt P02870 31-210; P02870 218-269)”, the reaction value (absorbance at 450 nm, blank subtracted) (absorbance at 450 nm) came out at 0.01 in [1] and 0.455 in [2].

On to Asialomucin (pig), for which the minimum inhibition concentration in test [3] is 31.3 µl/ml; in [4], 62.5 µl/ml.

“Aleuria aurantia lectin (AAL) of Comparison Example 1 (from UniProt P18891 2-313)”: in test [2], the reaction value (absorbance at 450 nm, blank subtracted) (absorbance at 450 nm) amounted to 0.795.

Asialofetuin had a minimum inhibition concentration in [5] of 250 µl/ml.

For “Thyroglobulin (Table 3 and affinity column, species not stated)”, the minimum inhibition concentration is 125 µl/ml in test [3]; 62.5 µl/ml in [5]; 250 µl/ml in test [6]; 62.5 µl/ml in test [7]; 250 µl/ml in test [8].

In the case of Mucin (pig), the minimum inhibition concentration amounted to 15.6 µl/ml in test [3] and 62.5 µl/ml in test [4].

In [2], “Pholiota terrestris lectin (PTL) of Example 1” gave a reaction value (absorbance at 450 nm, blank subtracted) (absorbance at 450 nm) of 1.55.

As for “Stropharia rugosoannulata lectin (SRL) of Example 2”, the values for the reaction value (absorbance at 450 nm, blank subtracted) (absorbance at 450 nm) in [1] and in test [2] were 0.031 and 1.62, respectively.

B1: Aleuria aurantia lectin (AAL) of Comparison Example 1 (other, UniProt P18891 2-313, looked up)
chain: PTEFLYTSKIAAISWAATGGRQQRVYFQDLNGKIREAQRGGDNPWTGGSSQNVIGEAKLFSPLAAVTWKSAQGIQIRVYCVNKDNILSEFVYDGSKWITGQLGSVGVKVGSNSKLAALQWGGSESAPPNIRVYYQKSNGSGSSIHEYVWSGKWTAGASFGSTVPGTGIGATAIGPGRLRIYYQATDNKIREHCWDSNSWYVGGFSASASAGVSIAAISWGSTPNIRVYWQKGREELYEAAYGGSWNTPGQIKDASRPTPSLPDTFIAANSSGNIDISVFFQASGVSLQQWQWISGKGWSIGAVVPTGTPAGW
modifications: biotin-labeled in the Western blotting and ELISA experiments
notes: Bought lectin
Consider B1, for which the binding result is reported as “no binding (tested: biotin-labeled lectin 2 µg/ml)” with Transferrin (human); “binds” with Lactoferrin (bovine); “no binding (tested: relative value 10 or less)” with Invertase (yeast); “no binding (tested: relative value 10 or less)” with Bovine serum albumin; “binds” in the test with Thyroglobulin (pig).

B2: Lens culinaris agglutinin (LCA) of Comparison Example 3 (other)
chain 1: TETTSFSITKFSPDQKNLIFQGDGYTTKGKLTLTKAVKSTVGRALYSTPIHIWDRDTGNVANFVTSFTFVIDAPSSYNVADEFTFFIAPVDTKPQTGGGYLGVFNSKEYDKTSQTVAVEFDTFYNAAWDPSNKERHIGIDVNSIKSVNTKSWNLQNGERANVVIAFNAATNVLTVTLTYP
chain 2: VTSYTLNEVVPLKDVVPEWVRIGFSATTGAEFAAHEVHSWSFHSELGGTSSS
modifications: biotin-labeled in the Western blotting and ELISA experiments
notes: Bought lectin
For B2, the binding result with Transferrin (human) is recorded as “no binding (tested: biotin-labeled lectin 2 µg/ml)”; with Bovine serum albumin, “no binding (tested: relative value 10 or less)”.
